# What was measured:
# [1] = molecular target: T1, A33 antigen (full-length human A33) (human, UniProt Q99795 22-319); assay: FCM on LS174T cells; grade = ng/ml to reach half MFI 125 (+++ 10<=x<100, ++ 100<=x<1000, + 1000<=x<10000)
# T1 construct: Class I cell membrane protein of the Ig superfamily; also called GPA33; human A33 antigen
# T1 sequence: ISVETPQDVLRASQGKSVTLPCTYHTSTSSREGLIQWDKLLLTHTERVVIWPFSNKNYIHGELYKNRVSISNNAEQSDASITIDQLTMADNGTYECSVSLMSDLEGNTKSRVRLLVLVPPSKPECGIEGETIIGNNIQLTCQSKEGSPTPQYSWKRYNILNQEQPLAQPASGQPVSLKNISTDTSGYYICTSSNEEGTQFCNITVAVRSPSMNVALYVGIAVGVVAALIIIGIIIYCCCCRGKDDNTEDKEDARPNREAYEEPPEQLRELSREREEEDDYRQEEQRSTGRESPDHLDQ
# Description: (§1) The reactivity of each type of purified monoclonal antibody obtained in Example 8 to A33-antigen-expressing human colorectal cancer cell line COLO205 cells, LoVo cells (ATCC No. CCL-229), LS174T cells (ATCC No. CL-188), and NCI-H508 cells (ATCC No. CCL-253) was examined by FCM. Human colorectal cancer cell line HT-29 cells (ATCC No. HTB-38) expressing no A33 antigen were also examined as negative control cells. Each cell line was suspended at a concentration of 2×10⁶/ml in a PBS Staining Buffer (SB) containing 0.1% NaN₃ and 2% FCS. The cell suspension (50 μl/well) was dispensed in a 96-well round bottom plate (produced by Becton, Dickinson and Company). 50 μl of each type of purified monoclonal antibody (adjusted using SB at a concentration of 2000, 400, 80, or 16 ng/ml) was added, and then incubation was performed on ice for 30 minutes. A negative control was prepared depending on each subclass. Specifically, a human IgG1 antibody (produced by Sigma) was adjusted using SB at a concentration of 2000, 400, 80, or 16 ng/ml. 50 μl of the solution was added, followed by 30 minutes of incubation on ice. The resultant was washed twice with SB and then 50 μl of an FITC fluorescence-labeled goat anti-human IgG F(ab′)₂ antibody (produced by Southern Biotech), followed by 30 minutes of incubation on ice. The resultant was washed once with SB and then the resultant was suspended in 300 μl of a FACS buffer. The mean fluorescence intensity of each cell line was measured by FACS (FACScan produced by Becton, Dickinson and Company).
# (§2) For COLO205 cells, the half value of the mean fluorescence intensity was determined to be 90. For LoVo cells, the half value of the mean fluorescence intensity was determined to be 25. […] When an antibody concentration required to reach such value was 10<=x<100 ng/ml, the reactivity was represented by +++, when the same was 100<=x<1000 ng/ml, the reactivity was represented by ++, and when the same was 1000<=x<10000 ng/ml, the reactivity was represented by +. When no binding was observed, the reactivity was represented by −.
# [2] = molecular target: T1, A33 antigen (full-length human A33); assay: FCM on COLO205 cells; grade = ng/ml to reach half MFI 90 (+++ 10<=x<100, ++ 100<=x<1000, + 1000<=x<10000)
# Description: as §1, §2
# [3] = molecular target: T1, A33 antigen (full-length human A33); assay: FCM on NCI-H508 cells; grade = ng/ml to reach half MFI 125 (+++ 10<=x<100, ++ 100<=x<1000, + 1000<=x<10000)
# Description: as §1, §2
# [4] = molecular target: T1, A33 antigen (full-length human A33); assay: FCM on LS174T cells; grade = ng/ml to reach half MFI 100 (+++ 10<=x<100, ++ 100<=x<1000, + 1000<=x<10000)
# [5] = molecular target: T1, A33 antigen (full-length human A33); assay: FCM on NCI-H508 cells; grade = ng/ml to reach half MFI 175 (+++ 10<=x<100, ++ 100<=x<1000, + 1000<=x<10000)
# [6] = molecular target: T1, A33 antigen (full-length human A33); assay: FCM competition on COLO205 cells as in Example 10; competitor mouse anti-A33 antibody
# Protocol: (§3) Whether or not each type of purified monoclonal antibody obtained in Example 8 recognizes an epitope similar to that of the mouse anti-A33 antibody was examined by a competition test using FCM. The COLO205 cell line was suspended at a concentration of 2×10⁶/ml in a PBS Staining Buffer (SB) containing 0.1% NaN₃ and 2% FCS. The cell suspension (50 μl/well) was dispensed in a 96-well round bottom plate (produced by Becton, Dickinson and Company). The purified mouse anti-A33 antibody prepared in Example 1 was not added or added at a concentration of 100 μg/ml to the wells containing each type of purified monoclonal antibody (1 μg/ml and 50 μl), followed by 30 minutes of incubation on ice. A mouse negative control (containing no purified anti-A33 antibody added thereto) was prepared as follows. A human IgG1 antibody (produced by Sigma) was adjusted at a concentration of 1 μg/ml with SB and then 50 μl of the solution was added, followed by 30 minutes of incubation on ice. The resultant was washed twice with SB and then 50 μl of FITC fluorescence-labeled goat anti-human IgG F(ab′)₂ antibody (produced by IBL) was added, followed by 30 minutes of incubation on ice. The resultant was washed once with SB and then the resultant was suspended in 300 μl of a FACS buffer. The mean fluorescence intensity of each cell line was measured by FACS (FACScan produced by Becton, Dickinson and Company). The inhibition (%) between each type of purified monoclonal antibody and the mouse A33 antibody was calculated by the following formula: […]
# [7] = molecular target: T1, A33 antigen (full-length human A33); assay: FCM competition on COLO205 cells; antibody 1 µg/ml, competitor mouse anti-A33 antibody 100 µg/ml
# Protocol: as §3
# [8] = molecular target: T1, A33 antigen (full-length human A33); assay: FCM on LoVo cells; grade = ng/ml to reach half MFI 25 (+++ 10<=x<100, ++ 100<=x<1000, + 1000<=x<10000)
# Description: as §1, §2
# [9] = molecular target: T1, A33 antigen (full-length human A33); assay: FCM on COLO205 cells; grade = ng/ml to reach half MFI 45 (+++ 10<=x<100, ++ 100<=x<1000, + 1000<=x<10000)
binder,measurement,setting,value
"chimeric anti-A33 antibody (antibody, V domains shown, Mouse variable regions with human IgG1 heavy chain and light chain constant regions (N5KG1-Val Lark vector); also called cA33; chimeric anti-A33 recombinant antibody) VH: EVKLVESGGGLVKPGGSLKLSCAASGFAFSTYDMSWVRQTPEKRLEWVATISSGGSYTYYLDSVKGRFTISRDSARNTLYLQMSSLRSEDTALYYCAPTTVVPFAYWGQGTLVTVSS VL: DIVMTQSQKFMSTSVGDRVSITCKASQNVRTVVAWYQQKPGQSPKTLIYLASNRHTGVPDRFTGSGSGTDFTLTISNVQSEDLADYFCLQHWSYPLTFGSGTKLEVK",antibody concentration required to reach half value of mean fluorescence intensity,[1],100 to 1000 ng/mL
same,antibody concentration required to reach half value of mean fluorescence intensity,[2],10 to 100 ng/mL
same,antibody concentration required to reach half value of mean fluorescence intensity,[3],100 to 1000 ng/mL
same,antibody concentration required to reach half value of the mean fluorescence intensity,[4],10 to 100 ng/mL
same,antibody concentration required to reach half value of the mean fluorescence intensity,[5],10 to 100 ng/mL
same,Inhibition (%),[6],94.6%
same,Inhibition (%),[7],94.2%
same,antibody concentration required to reach half value of mean fluorescence intensity,[8],10 to 100 ng/mL
same,antibody concentration required to reach half value of the mean fluorescence intensity,[9],10 to 100 ng/mL

# Reference: patent publication US20080200654A1 (KIRIN PHARMA, published 2008)
